Tests used:
ErbB2 [1] = target: ErbB2 (UniProt P04626); assay: two-colour single molecule co-localisation and tracking (TOCCSL, TIR microscopy); live CHO-ErbB2-ErbB3 cells; AF488-ErbB3-Fab and AF647-ErbB3-Fab for homodimers, AF488-ErbB2-Fab and AF647-ErbB3-Fab for heterodimers; no HRG, no pertuzumab; room temperature; details: other: two-colour single molecule co-localisation and tracking (TOCCSL, TIR microscopy)
ErbB2 [2] = target: ErbB2 (UniProt P04626); assay: two-colour single molecule co-localisation and tracking (TOCCSL, TIR microscopy); live CHO-ErbB2-ErbB3 cells; AF488-ErbB3-Fab and AF647-ErbB3-Fab for homodimers, AF488-ErbB2-Fab and AF647-ErbB3-Fab for heterodimers; with 200 ng/mL (25 nM) HRG, no pertuzumab; room temperature; details: other: two-colour single molecule co-localisation and tracking (TOCCSL, TIR microscopy)

ErbB3, sequence (chain): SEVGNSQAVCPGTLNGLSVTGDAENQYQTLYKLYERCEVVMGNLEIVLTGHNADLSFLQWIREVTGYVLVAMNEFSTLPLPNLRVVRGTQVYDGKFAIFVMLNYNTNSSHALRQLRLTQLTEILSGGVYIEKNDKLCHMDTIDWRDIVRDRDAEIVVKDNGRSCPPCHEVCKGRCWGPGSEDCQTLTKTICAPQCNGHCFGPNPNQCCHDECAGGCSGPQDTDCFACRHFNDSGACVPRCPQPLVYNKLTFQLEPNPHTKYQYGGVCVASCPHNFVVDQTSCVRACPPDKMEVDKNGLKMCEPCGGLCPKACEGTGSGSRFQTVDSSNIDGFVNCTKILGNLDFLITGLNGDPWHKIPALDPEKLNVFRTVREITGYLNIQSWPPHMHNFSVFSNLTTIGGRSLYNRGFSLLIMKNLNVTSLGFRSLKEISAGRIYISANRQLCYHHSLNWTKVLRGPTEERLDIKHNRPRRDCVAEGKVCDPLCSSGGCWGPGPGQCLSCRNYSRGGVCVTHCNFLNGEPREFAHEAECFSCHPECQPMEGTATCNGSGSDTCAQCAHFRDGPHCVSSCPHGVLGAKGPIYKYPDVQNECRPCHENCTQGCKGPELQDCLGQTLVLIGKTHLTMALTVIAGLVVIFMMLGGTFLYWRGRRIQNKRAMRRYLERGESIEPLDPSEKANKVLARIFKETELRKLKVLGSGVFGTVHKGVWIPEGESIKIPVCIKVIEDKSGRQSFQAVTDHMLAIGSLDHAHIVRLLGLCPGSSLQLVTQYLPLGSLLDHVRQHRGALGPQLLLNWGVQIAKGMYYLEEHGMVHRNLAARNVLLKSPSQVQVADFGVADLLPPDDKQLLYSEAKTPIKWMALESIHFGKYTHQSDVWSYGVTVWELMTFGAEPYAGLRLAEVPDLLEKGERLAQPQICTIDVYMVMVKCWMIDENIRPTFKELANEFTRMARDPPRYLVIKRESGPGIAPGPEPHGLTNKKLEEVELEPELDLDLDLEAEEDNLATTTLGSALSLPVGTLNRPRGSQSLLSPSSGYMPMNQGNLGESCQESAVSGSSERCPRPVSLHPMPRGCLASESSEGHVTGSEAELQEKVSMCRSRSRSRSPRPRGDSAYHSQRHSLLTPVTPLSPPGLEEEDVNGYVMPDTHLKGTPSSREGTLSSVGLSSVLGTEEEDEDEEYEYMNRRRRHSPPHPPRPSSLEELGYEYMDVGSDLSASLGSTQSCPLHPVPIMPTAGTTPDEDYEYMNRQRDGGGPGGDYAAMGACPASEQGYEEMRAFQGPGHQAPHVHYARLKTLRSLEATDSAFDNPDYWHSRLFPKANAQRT

ErbB3
percent of ErbB3 in ErbB3/ErbB2 heterodimers (ErbB2 [1]): ∼70% of ErbB3 being associated to ErbB3/ErbB2 heterodimers | percent of ErbB3 in ErbB3/ErbB2 heterodimers (ErbB2 [2]): a further increase of ErbB3/ErbB2 heterodimerization (∼90%

From publication PMC7018998
